Laboratory results reported in publication PMC2518714.

Molecular target: T1, CD9 (wild type) (human (endogenous in PC3)), P21926
T1 chain: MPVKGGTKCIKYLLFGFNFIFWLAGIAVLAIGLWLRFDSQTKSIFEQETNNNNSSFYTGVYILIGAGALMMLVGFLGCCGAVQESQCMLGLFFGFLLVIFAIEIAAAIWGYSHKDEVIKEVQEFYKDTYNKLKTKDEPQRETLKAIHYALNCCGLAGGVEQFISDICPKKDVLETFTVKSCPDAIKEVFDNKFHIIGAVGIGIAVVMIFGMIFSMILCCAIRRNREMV
Assay: single-molecule codiffusion
Conditions: remark: other sources report otherwise

B1: CD9 (wild type), P21926 1-228 (natural protein)
chain: T1 chain
modifications: here or on the partner: palmitoylated (sites not given); palmitoylated (sites not given)
B1 was tested, and the percent of Brownian and mixed trajectories with codiffusing molecules was 15% and the percent of possible pairs dynamically colocalized was 5%.
